Experimental data published in patent US20200254065A1, “LONG-ACTING GLP-2 ANALOGS” (OPKO Biologics Ltd., priority 2019, published 2020).
Square brackets hold non-standard residues; d marks the D form. Nle = CCCC[C@H](N)C(=O)O

T1: GLP-2 receptor (UniProt O95838 1-553, limits assumed)
T1 sequence (looked up): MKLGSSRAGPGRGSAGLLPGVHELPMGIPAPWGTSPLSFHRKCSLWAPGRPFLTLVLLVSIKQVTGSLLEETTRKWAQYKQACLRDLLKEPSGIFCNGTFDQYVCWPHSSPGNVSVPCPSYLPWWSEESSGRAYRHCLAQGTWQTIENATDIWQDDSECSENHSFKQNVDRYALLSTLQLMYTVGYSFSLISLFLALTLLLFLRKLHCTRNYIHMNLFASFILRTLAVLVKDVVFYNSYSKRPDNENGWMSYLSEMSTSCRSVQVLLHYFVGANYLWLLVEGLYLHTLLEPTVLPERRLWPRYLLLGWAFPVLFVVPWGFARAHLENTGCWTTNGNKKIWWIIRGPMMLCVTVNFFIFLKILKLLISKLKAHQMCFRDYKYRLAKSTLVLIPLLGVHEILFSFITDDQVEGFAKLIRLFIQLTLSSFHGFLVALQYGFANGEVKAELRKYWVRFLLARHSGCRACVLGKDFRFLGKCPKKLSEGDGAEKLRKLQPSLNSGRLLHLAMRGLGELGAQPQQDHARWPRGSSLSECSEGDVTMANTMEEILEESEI

B1: GLP-2 Variant #5 (peptide)
peptide: H-HGEGSFSDE[Nle]NTILDYLAARDFINWLIQTKITD-NH2
SMILES: CCCC[C@H](NC(=O)[C@H](CCC(=O)O)NC(=O)[C@H](CC(=O)O)NC(=O)[C@H](CO)NC(=O)[C@H](Cc1ccccc1)NC(=O)[C@H](CO)NC(=O)CNC(=O)[C@H](CCC(=O)O)NC(=O)CNC(=O)[C@@H](N)Cc1c[nH]cn1)C(=O)N[C@@H](CC(N)=O)C(=O)N[C@H](C(=O)N[C@H](C(=O)N[C@@H](CC(C)C)C(=O)N[C@@H](CC(=O)O)C(=O)N[C@@H](Cc1ccc(O)cc1)C(=O)N[C@@H](CC(C)C)C(=O)N[C@@H](C)C(=O)N[C@@H](C)C(=O)N[C@@H](CCCNC(=N)N)C(=O)N[C@@H](CC(=O)O)C(=O)N[C@@H](Cc1ccccc1)C(=O)N[C@H](C(=O)N[C@@H](CC(N)=O)C(=O)N[C@@H](Cc1c[nH]c2ccccc12)C(=O)N[C@@H](CC(C)C)C(=O)N[C@H](C(=O)N[C@@H](CCC(N)=O)C(=O)N[C@H](C(=O)N[C@@H](CCCCN)C(=O)N[C@H](C(=O)N[C@H](C(=O)N[C@@H](CC(=O)O)C(N)=O)[C@@H](C)O)[C@@H](C)CC)[C@@H](C)O)[C@@H](C)CC)[C@@H](C)CC)[C@@H](C)CC)[C@@H](C)O
B2: GLP-2 Variant #6 (peptide)
peptide: H-HGEGSFSDE[Nle]NTILDLLAARDFINWLIQTKITD-OH
SMILES: CCCC[C@H](NC(=O)[C@H](CCC(=O)O)NC(=O)[C@H](CC(=O)O)NC(=O)[C@H](CO)NC(=O)[C@H](Cc1ccccc1)NC(=O)[C@H](CO)NC(=O)CNC(=O)[C@H](CCC(=O)O)NC(=O)CNC(=O)[C@@H](N)Cc1c[nH]cn1)C(=O)N[C@@H](CC(N)=O)C(=O)N[C@H](C(=O)N[C@H](C(=O)N[C@@H](CC(C)C)C(=O)N[C@@H](CC(=O)O)C(=O)N[C@@H](CC(C)C)C(=O)N[C@@H](CC(C)C)C(=O)N[C@@H](C)C(=O)N[C@@H](C)C(=O)N[C@@H](CCCNC(=N)N)C(=O)N[C@@H](CC(=O)O)C(=O)N[C@@H](Cc1ccccc1)C(=O)N[C@H](C(=O)N[C@@H](CC(N)=O)C(=O)N[C@@H](Cc1c[nH]c2ccccc12)C(=O)N[C@@H](CC(C)C)C(=O)N[C@H](C(=O)N[C@@H](CCC(N)=O)C(=O)N[C@H](C(=O)N[C@@H](CCCCN)C(=O)N[C@H](C(=O)N[C@H](C(=O)N[C@@H](CC(=O)O)C(=O)O)[C@@H](C)O)[C@@H](C)CC)[C@@H](C)O)[C@@H](C)CC)[C@@H](C)CC)[C@@H](C)CC)[C@@H](C)O
B3: GLP-2 Variant #3 (peptide)
peptide: H-HGEGSFSDE[Nle][dH]TILDNLAARDFINWLIQTKITD-NH2
SMILES: CCCC[C@H](NC(=O)[C@H](CCC(=O)O)NC(=O)[C@H](CC(=O)O)NC(=O)[C@H](CO)NC(=O)[C@H](Cc1ccccc1)NC(=O)[C@H](CO)NC(=O)CNC(=O)[C@H](CCC(=O)O)NC(=O)CNC(=O)[C@@H](N)Cc1c[nH]cn1)C(=O)N[C@H](Cc1c[nH]cn1)C(=O)N[C@H](C(=O)N[C@H](C(=O)N[C@@H](CC(C)C)C(=O)N[C@@H](CC(=O)O)C(=O)N[C@@H](CC(N)=O)C(=O)N[C@@H](CC(C)C)C(=O)N[C@@H](C)C(=O)N[C@@H](C)C(=O)N[C@@H](CCCNC(=N)N)C(=O)N[C@@H](CC(=O)O)C(=O)N[C@@H](Cc1ccccc1)C(=O)N[C@H](C(=O)N[C@@H](CC(N)=O)C(=O)N[C@@H](Cc1c[nH]c2ccccc12)C(=O)N[C@@H](CC(C)C)C(=O)N[C@H](C(=O)N[C@@H](CCC(N)=O)C(=O)N[C@H](C(=O)N[C@@H](CCCCN)C(=O)N[C@H](C(=O)N[C@H](C(=O)N[C@@H](CC(=O)O)C(N)=O)[C@@H](C)O)[C@@H](C)CC)[C@@H](C)O)[C@@H](C)CC)[C@@H](C)CC)[C@@H](C)CC)[C@@H](C)O
B4: GLP-2 Variant #2 (peptide)
peptide: H-HGEGSFSDE[Nle][dF]TILDNLAARDFINWLIQTKITD-NH2
SMILES: CCCC[C@H](NC(=O)[C@H](CCC(=O)O)NC(=O)[C@H](CC(=O)O)NC(=O)[C@H](CO)NC(=O)[C@H](Cc1ccccc1)NC(=O)[C@H](CO)NC(=O)CNC(=O)[C@H](CCC(=O)O)NC(=O)CNC(=O)[C@@H](N)Cc1c[nH]cn1)C(=O)N[C@H](Cc1ccccc1)C(=O)N[C@H](C(=O)N[C@H](C(=O)N[C@@H](CC(C)C)C(=O)N[C@@H](CC(=O)O)C(=O)N[C@@H](CC(N)=O)C(=O)N[C@@H](CC(C)C)C(=O)N[C@@H](C)C(=O)N[C@@H](C)C(=O)N[C@@H](CCCNC(=N)N)C(=O)N[C@@H](CC(=O)O)C(=O)N[C@@H](Cc1ccccc1)C(=O)N[C@H](C(=O)N[C@@H](CC(N)=O)C(=O)N[C@@H](Cc1c[nH]c2ccccc12)C(=O)N[C@@H](CC(C)C)C(=O)N[C@H](C(=O)N[C@@H](CCC(N)=O)C(=O)N[C@H](C(=O)N[C@@H](CCCCN)C(=O)N[C@H](C(=O)N[C@H](C(=O)N[C@@H](CC(=O)O)C(N)=O)[C@@H](C)O)[C@@H](C)CC)[C@@H](C)O)[C@@H](C)CC)[C@@H](C)CC)[C@@H](C)CC)[C@@H](C)O
B5: GLP-2 Variant #7 (peptide)
peptide: H-HGEGSFSDE[Nle]NTILDYLAARDFINWLIQTKITD-OH
SMILES: CCCC[C@H](NC(=O)[C@H](CCC(=O)O)NC(=O)[C@H](CC(=O)O)NC(=O)[C@H](CO)NC(=O)[C@H](Cc1ccccc1)NC(=O)[C@H](CO)NC(=O)CNC(=O)[C@H](CCC(=O)O)NC(=O)CNC(=O)[C@@H](N)Cc1c[nH]cn1)C(=O)N[C@@H](CC(N)=O)C(=O)N[C@H](C(=O)N[C@H](C(=O)N[C@@H](CC(C)C)C(=O)N[C@@H](CC(=O)O)C(=O)N[C@@H](Cc1ccc(O)cc1)C(=O)N[C@@H](CC(C)C)C(=O)N[C@@H](C)C(=O)N[C@@H](C)C(=O)N[C@@H](CCCNC(=N)N)C(=O)N[C@@H](CC(=O)O)C(=O)N[C@@H](Cc1ccccc1)C(=O)N[C@H](C(=O)N[C@@H](CC(N)=O)C(=O)N[C@@H](Cc1c[nH]c2ccccc12)C(=O)N[C@@H](CC(C)C)C(=O)N[C@H](C(=O)N[C@@H](CCC(N)=O)C(=O)N[C@H](C(=O)N[C@@H](CCCCN)C(=O)N[C@H](C(=O)N[C@H](C(=O)N[C@@H](CC(=O)O)C(=O)O)[C@@H](C)O)[C@@H](C)CC)[C@@H](C)O)[C@@H](C)CC)[C@@H](C)CC)[C@@H](C)CC)[C@@H](C)O

Molecular target: T1, GLP-2 receptor
Assay: cell-based or functional assay

| Binder | EC50 Ratio to Teduglutide, CBA [fold] | EC50 [nM], Cell Based Assay (CBA), cells overexpressing the GLP-2 receptor [nM] |
| --- | --- | --- |
| B1 | 2.4 | 13.6 |
| B2 | 3.8 | 21.7 |
| B3 | 2.5 | 14.2 |
| B4 | 6.4 | 36.1 |
| B5 | 3 | 17.2 |
